Measurements published in the supplement of paper PMC10126150.
± gives the standard deviation of the averaged measurements.

System: ATP
Experiment: switch fluorescence ratio, 500 uM ATP over buffer (Cy3 cluster intensity, sum of 5 cycles each) (fold (ratio)); higher = stronger signal-on switching upon ATP binding; sequences stand for … in TCGTCGGCAGCGTCAGATGTGTATAAGAGACAGTTTTTTTTTTTTTTTTTTTTTTTTT…TC
Settings: aptamer strand: ATP DNA aptamer (quencher-CACCTGGGGGAGTATTGCGGAGGAAGG + anchor), 100 nM annealed; ATP concentration: 500 uM
Procedure, shortened: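 Values give the fluorescence ratio for each switch-domain sequence, averaged from per-cluster ratios of summed target-cycle to summed buffer-cycle Cy3 intensity. The Cy3-labelled switching-strand clusters sat on a modified Illumina MiSeq flow-cell, were annealed to 100 nM quencher-labelled ATP aptamer, and were imaged in selection buffer, then after 15 min with 500 uM ATP at 22 °C. Five cycles ran with NaOH stripping and re-annealing between them, and clusters outside 100-1000 RFU were excluded.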
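Also: ATP exposure 15 min at 22 °C before imaging.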

Row | Sequence | switch fluorescence ratio
1 | GGAGGGGTCA | 0.9744 ± 0.0097
2 | GGAGGGGTCG | 1.02 ± 0.033
3 | GGAGGGTGCG | 1.011 ± 0.0064
4 | GGAGGGTTGG | 0.998 ± 0.059
5 | GGAGGGTTTG | 0.992 ± 0.034
6 | GGAGGTACAC | 1.03 ± 0.037
7 | GGAGTAAATG | 1.01 ± 0.015
8 | GGAGTAAGAG | 1.11 ± 0.21
9 | GGAGTACCGG | 1.01 ± 0.049
10 | GGAGTCATGA | 0.982 ± 0.04
11 | GGAGTCGTCC | 1.01 ± 0.024
12 | GGAGTCTAGG | 0.994 ± 0.031
13 | GGAGTGACGG | 0.9979 ± 0.0024
14 | GGAGTGAGGG | 0.985 ± 0.05
15 | GGAGTGTGGG | 0.986 ± 0.019
16 | GGAGTGTGTG | 0.96 ± 0.044
17 | GGAGTTAGGG | 0.977 ± 0.011
18 | GGAGTTGTTG | 0.99 ± 0.009
19 | GGAGTTTCGT | 0.988 ± 0.023
20 | GGATAATAGT | 0.9916 ± 0.0082
21 | GGATAATGGC | 0.94 ± 0.059
22 | GGATACGTTT | 0.994 ± 0.012
23 | GGATAGAGTG | 0.971 ± 0.052
24 | GGATAGGGGA | 1.01 ± 0.017
25 | GGATAGGGGT | 1.05 ± 0.062

Row | Sequence | switch fluorescence ratio
26 | GGATAGGGTG | 1.06 ± 0.076
27 | GGATATAAGT | 1.01 ± 0.035
28 | GGATCAATGT | 0.998 ± 0.02
29 | GGATCATTCG | 1.02 ± 0.048
30 | GGATCATTTA | 1.03 ± 0.042
31 | GGATCCAGTA | 1.02 ± 0.045
32 | GGATCCATAC | 1.01 ± 0.014
33 | GGATCCGGGA | 1.0104 ± 2.5e-05
34 | GGATCCTGTT | 1.01 ± 0.027
35 | GGATCGCGAG | 0.9797 ± 0.0074
36 | GGATCTTGGG | 1.0038 ± 0.00073
37 | GGATGAATGG | 1.03 ± 0.043
38 | GGATGAGGGT | 0.986 ± 0.018
39 | GGATGCAAGT | 0.998 ± 0.039
40 | GGATGCAGC | 0.992 ± 0.024
41 | GGATGCAGGG | 0.999 ± 0.012
42 | GGATGCGTG | 0.985 ± 0.059
43 | GGATGGATGA | 1.07 ± 0.073
44 | GGATGGCATG | 0.979 ± 0.039
45 | GGATGGCGGA | 0.997 ± 0.024
46 | GGATGGGTTG | 1.09 ± 0.19
47 | GGATGGTGCT | 0.948 ± 0.027
48 | GGATGGTTCA | 1.05 ± 0.072
49 | GGATGGTTTC | 1.01 ± 0.023
50 | GGATGTAGCG | 0.985 ± 0.051

Row | Sequence | switch fluorescence ratio
51 | GGATGTCAGG | 1 ± 0.045
52 | GGATGTGAAG | 0.9818 ± 0.0027
53 | GGATGTTATG | 1.016 ± 0.0078
54 | GGATTAAGCT | 1.015 ± 0.0043
55 | GGATTAGCTG | 1.01 ± 0.049
56 | GGATTAGG | 0.99 ± 0.025
57 | GGATTAGGTT | 1.01 ± 0.011
58 | GGATTATCTC | 1.015 ± 0.0044
59 | GGATTATTAG | 0.965 ± 0.016
60 | GGATTCAGCA | 1.01 ± 0.022
61 | GGATTCATTT | 1.054 ± 0.0087
62 | GGATTCTTAG | 0.986 ± 0.049
63 | GGATTGAATC | 1 ± 0.015
64 | GGATTGAGGG | 0.968 ± 0.021
65 | GGATTGCAAG | 0.998 ± 0.013
66 | GGATTGCTCG | 1.03 ± 0.029
67 | GGATTGGATT | 1 ± 0.022
68 | GGATTGGCGT | 1 ± 0.044
69 | GGATTGGTCC | 1.14 ± 0.16
70 | GGATTGGTTT | 0.983 ± 0.03
71 | GGATTGTCAG | 0.9847 ± 0.0024
72 | GGATTTGAAT | 1.03 ± 0.031
73 | GGATTTGGG | 0.964 ± 0.014
74 | GGATTTTAAA | 1 ± 0.022
75 | GGATTTTTAG | 0.99134 ± 0.00052

Row | Sequence | switch fluorescence ratio
76 | GGATTTTTTA | 1.006 ± 1.6e-05
77 | GGCAATATAG | 1.141 ± 0.006
78 | GGCAATGAAA | 0.999 ± 0.019
79 | GGCAATTCAG | 1.07 ± 0.019
80 | GGCACAAAAG | 0.983 ± 0.019
81 | GGCACATAAG | 1.012 ± 0.0033
82 | GGCACATGGG | 1.01 ± 0.028
83 | GGCACCTGGG | 1.02 ± 0.016
84 | GGCACGTATA | 1.17 ± 0.014
85 | GGCACTATAT | 1.04 ± 0.023
86 | GGCACTTCGG | 0.99 ± 0.014
87 | GGCAGAGGAG | 1.01 ± 0.0063
88 | GGCAGCCTTT | 1.0169 ± 0.00028
89 | GGCAGCTGGA | 0.9578 ± 0.0072
90 | GGCAGGGGGC | 1.02 ± 0.031
91 | GGCAGGGGTA | 0.995 ± 0.028
92 | GGCAGGGGTG | 1.11 ± 0.015
93 | GGCAGGTTTT | 0.996 ± 0.035
94 | GGCAGTACGT | 1.27 ± 0.066
95 | GGCAGTCACG | 1.02 ± 0.014
96 | GGCATAAGTG | 1.016 ± 0.0087
97 | GGCATATGCG | 1.013 ± 0.0068
98 | GGCATCGCGA | 1.1 ± 0.064
99 | GGCATGGGGG | 0.984 ± 0.017
100 | GGCATGGGTT | 1 ± 0.019
